Reference: patent US20180230200A1 (CITY OF HOPE, published 2018)

T1: UL128 expressed from MVA in BHK-21 cells (human cytomegalovirus, UniProt P16837 28-171)
T1 construct: whole, on cells
T1 sequence: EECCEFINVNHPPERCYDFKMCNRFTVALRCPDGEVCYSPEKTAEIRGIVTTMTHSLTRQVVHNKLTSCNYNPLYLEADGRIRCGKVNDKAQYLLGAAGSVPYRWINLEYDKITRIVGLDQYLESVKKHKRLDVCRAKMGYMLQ

B1: 54E11 (antibody, V domains shown)
VH: QIQLVQSGPELKKPGETVKISCKASGYTFTSYGMNWVKQAPGKGLKWMGWINTYTGEPTYADDFKGRFAFSLETSASTAYLQINNLKNEDTATYFCAREHYYGINPLLGCWGQGTTLTVSS
VL: DIQMTQTTSSLSASLGDRVTISCSASQGISNYLNWYQQKPDGTVKLLIYDTSSLHSGVPSRFSGSGSGTDYSLTISNLEPEDIATYYCQQYSKLPYTFGGGTKLEIK
notes: also called NAb 54E11
B2: 21F6 (antibody, V domains shown)
VH: B1 VH
VL: B1 VL
notes: also called NAb 21F6

What was measured:
[1] = biological target: T2, gH/gL/UL128/UL130/UL131A pentamer complex expressed from MVA-PC in BHK-21 cells (human cytomegalovirus, UniProt P12824 24-743; P16832 31-278; P16837 28-171; P16772 1-214; F5HET4 19-129); assay: FC competition, MVA-PC BHK-21; unlabelled row Ab; competitor: biotinylated 18F10
T2 construct: whole, on cells

[2] = biological target: T2, gH/gL/UL128/UL130/UL131A pentamer …; assay: FC competition, MVA-PC BHK-21; unlabelled row Ab; competitor: biotinylated 54E11
[3] = biological target: T2, gH/gL/UL128/UL130/UL131A pentamer …; assay: FC competition, MVA-PC BHK-21; unlabelled row Ab; competitor: biotinylated 13B5
[4] = biological target: gH/gL/UL128/UL130/UL131A pentamer complex (PC) of HCMV strain TR virus (human cytomegalovirus strain TR); assay: cell-based or functional assay
[5] = biological target: gH/gL/UL128/UL130/UL131A pentamer complex (PC) of HCMV strain TB40/E virus (human cytomegalovirus strain TB40/E); assay: cell-based or functional assay
[6] = biological target: T2, gH/gL/UL128/UL130/UL131A pentamer …; assay: FC competition, MVA-PC BHK-21; unlabelled row Ab; competitor: biotinylated 12E2
[7] = biological target: T2, gH/gL/UL128/UL130/UL131A pentamer …; assay: FC competition, MVA-PC BHK-21; unlabelled row Ab; competitor: biotinylated 21F6
[8] = biological target: T2, gH/gL/UL128/UL130/UL131A pentamer …; assay: FC competition, MVA-PC BHK-21; unlabelled row Ab; competitor: biotinylated 1B2
[9] = biological target: T3, gH/gL/UL130 co-expressed from MVA in BHK-21 cells (human cytomegalovirus, UniProt P12824 24-743; P16832 31-278; P16772 1-214); assay: intracellular FC, MVA-infected BHK-21
T3 construct: whole, on cells

[10] = biological target: T4, gH/gL co-expressed from MVA in BHK-21 cells (human cytomegalovirus, UniProt P12824 24-743; P16832 31-278); assay: intracellular FC, MVA-infected BHK-21
T4 construct: whole, on cells

[11] = biological target: T5, gH/gL/UL128/UL130 co-expressed from MVA in BHK-21 cells (human cytomegalovirus, UniProt P12824 24-743; P16832 31-278; P16837 28-171; P16772 1-214); assay: intracellular FC, MVA-infected BHK-21
T5 construct: whole, on cells

[12] = biological target: T6, UL128/UL130 co-expressed from MVA in BHK-21 cells (human cytomegalovirus, UniProt P16837 28-171; P16772 1-214); assay: intracellular FC, MVA-infected BHK-21
T6 construct: whole, on cells

[13] = biological target: T7, gH expressed from MVA in BHK-21 cells (human cytomegalovirus, UniProt P12824 24-743); assay: intracellular FC, MVA-infected BHK-21
T7 construct: whole, on cells

[14] = biological target: T8, gH/gL/UL128/UL131A co-expressed from MVA in BHK-21 cells (human cytomegalovirus, UniProt P12824 24-743; P16832 31-278; P16837 28-171; F5HET4 19-129); assay: intracellular FC, MVA-infected BHK-21
T8 construct: whole, on cells

[15] = biological target: T9, gH/gL/UL131A co-expressed from MVA in BHK-21 cells (human cytomegalovirus, UniProt P12824 24-743; P16832 31-278; F5HET4 19-129); assay: intracellular FC, MVA-infected BHK-21
T9 construct: whole, on cells

[16] = biological target: T1, UL128 expressed from MVA in BHK-21 cells; assay: intracellular FC, MVA-infected BHK-21
[17] = biological target: T10, UL130 expressed from MVA in BHK-21 cells (human cytomegalovirus, UniProt P16772 1-214); assay: intracellular FC, MVA-infected BHK-21
T10 construct: whole, on cells

[18] = biological target: T11, gH/gL/UL128 co-expressed from MVA in BHK-21 cells (human cytomegalovirus, UniProt P12824 24-743; P16832 31-278; P16837 28-171); assay: intracellular FC, MVA-infected BHK-21
T11 construct: whole, on cells

[19] = biological target: T12, UL131A expressed from MVA in BHK-21 cells (human cytomegalovirus, UniProt F5HET4 19-129); assay: intracellular FC, MVA-infected BHK-21
T12 construct: whole, on cells

[20] = biological target: T13, UL128/UL131A co-expressed from MVA in BHK-21 cells (human cytomegalovirus, UniProt P16837 28-171; F5HET4 19-129); assay: intracellular FC, MVA-infected BHK-21
T13 construct: whole, on cells

[21] = biological target: T2, gH/gL/UL128/UL130/UL131A pentamer …; assay: FC, biotinylated NAb titrated on MVA-PC-infected BHK-21 (cell surface PC)

| Binder | Binding Inhibition (%) [1] | Binding Inhibition (%) [2] | Binding Inhibition (%) [3] | IC50, inhibition of TR cell-to-cell spread in ARPE-19 [4] | IC50, neutralization of TR infection of ARPE-19 [4] | IC50, neutralization of TR infection of HUVEC [4] | IC50, neutralization of TR infection of MRC-5 [4] | IC50, inhibition of TB40/E cell-to-cell spread in ARPE-19 [5] | IC50, neutralization of TB40/E infection of ARPE-19 [5] | IC50, neutralization of TB40/E infection of CTB [5] | IC50, neutralization of TB40/E infection of HUVEC [5] | IC50, neutralization of TB40/E infection of MRC-5 [5] | Binding Inhibition (%) [6] | Binding Inhibition (%) [7] | Binding Inhibition (%) [8] | binding result [9] | binding result [10] | binding result [11] | binding result [12] | binding result [13] | also measured |
| --- | --- | --- | --- | --- | --- | --- | --- | --- | --- | --- | --- | --- | --- | --- | --- | --- | --- | --- | --- | --- | --- |
| B1 | 0% | 100% | 0% | 18 µg/mL | 0.0034 µg/mL | 0.0059 µg/mL | > 25 µg/mL | 17 µg/mL | 0.0034 µg/mL | 0.0249 µg/mL | 0.0046 µg/mL | > 25 µg/mL | 0% | 100% | 0% | no binding | no binding | no binding | no binding | no binding | binding result [14]: no binding; binding result [15]: no binding; binding result [16]: no binding; binding result [17]: no binding; binding result [18]: no binding; binding result [19]: no binding; binding result [20]: no binding; EC50 [21]: 0.51 nM |
| B2 | 0% | 100% | 0% | 19 µg/mL | 0.0035 µg/mL | 0.0059 µg/mL | > 25 µg/mL | 18 µg/mL | 0.0026 µg/mL | 0.0307 µg/mL | 0.004 µg/mL | > 25 µg/mL | 0% | 100% | 0% | no binding | no binding | no binding | no binding | no binding | binding result [14]: no binding; binding result [15]: no binding; binding result [16]: no binding; binding result [17]: no binding; binding result [18]: no binding; binding result [19]: no binding; binding result [20]: no binding; EC50 [21]: 0.62 nM |
